From patent publication US20080248043A1 (Amgen, published 2008) come the findings set out here.

The test deals with S protein of SARS-CoV Urbani strain (on virus) (SARS-CoV Urbani strain, UniProt P59594 14-1255). The experiment in a line: cell-based or functional assay.

Where a chain is given by its changes, count along the chain named.

B1: 6B5 (antibody, V domains shown)
VH: not shown
VL: DIQMTQSPSSLSASVGDRVTITCRASQGIRSDLGWYQQRPGKTPKRLIYAASSLQSGVPSRFSGSGSGTEFTLTISSLQPEDFATYYCQQYNSYPLTFGGGTKVEIK
As to B1, the “Neutralizing titer 200TCID50” value was determined as 3.12 µg/mL.

B2: 5A7 (antibody, V domains shown)
VH: QVQLVQSGAEVKKPGASVKVSCKASGYTFTSYGISWVRQAPGQGLEWMGWISAYNGNTNYAQKLQGRVTMTTDTSTSTAYMELRSLRSDDTAVYYCAVGRYLDYWGQGTLVTVSS
VL: B1 VL with G28D, S31N, R39K, T43A, Q89L
Regarding B2, the “Neutralizing titer 200TCID50” value is 0.781 µg/mL.

B3: 1B5 (antibody, V domains shown)
VH: QVQLVESGGGVVQPGRSLRLSCAASGFTFSSYGMHWVRQAPGKGLEWVAVIWYDGSNKYYADSVKGRFTISRDNSKNTLYLQMNSLRAEDTAVYYCARGDFYWFDPWGQGTLVTVSS
VL: B1 VL
Consider B3, for which the “Neutralizing titer 200TCID50” value was determined as 0.195 µg/mL.

B4: 3H12 (antibody, V domains shown)
VH: QVQLQESGPGLVKPSETLSLTCTVSDGSISSFYWSWIRQPPGKGLEWIGYIYYSGSTNYNPSLKSRVTISVDTSKNQFSLKLSSVTAADTAVYYCARDYDILTGYSNYYGMDVWGQGTTVTVSS
VL: B1 VL with S31N, R39K, T43A, Q89L, Y91H, L96F, G100P, V104L, E105D
In the case of B4, the “Neutralizing titer 200TCID50” value was found to be 3.12 µg/mL.

B5: 3A7 (antibody, V domains shown)
VH: B2 VH
VL: B1 VL with G28D, S31N, R39K, T43A, Q89L
Regarding B5, the “Neutralizing titer 200TCID50” value stood at 0.195 µg/mL.

B6: 5D3 (antibody, V domains shown)
VH: B2 VH
VL: B1 VL with G28D, S31N, R39K, T43A, Q89L
Take B6: the “Neutralizing titer 200TCID50” value is 0.195 µg/mL.

B7: 5E4 (antibody, V domains shown)
VH: QVHLVQSGAEVKKPGASVKVSCKASGYTFTGYYVHWVRQAPGQGLEWMGWINPNSGGTNYAQKFQGRVTMTRDTSISTAYMELSRLRSDDTAVYFCAGGRYLDYWGQGTLVTVSS
VL: B1 VL with S31N, R39K, T43A, Q89L, L96I, G100Q, K103R, V104L
For the molecule B7, the “Neutralizing titer 200TCID50” value turned out to be 12.5 µg/mL.

B8: 6B8 (antibody, V domains shown)
VH: B2 VH
VL: B1 VL with G28D, S31N, R39K, T43A, Q89L
In the case of B8, the “Neutralizing titer 200TCID50” value came out at 0.781 µg/mL.

B9: 5D6 (antibody, V domains shown)
VH: B2 VH with S77N
VL: B1 VL with G28D, S31N, R39K, T43A, Q89L
B9: the “Neutralizing titer 200TCID50” value was 0.195 µg/mL.

B10: 5A5 (antibody, V domains shown)
VH: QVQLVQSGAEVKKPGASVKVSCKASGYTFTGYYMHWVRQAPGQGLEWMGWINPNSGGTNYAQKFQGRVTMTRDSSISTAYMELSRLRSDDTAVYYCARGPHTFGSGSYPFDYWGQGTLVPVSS
VL: B1 VL with M4L
As to B10, the “Neutralizing titer 200TCID50” value turned out to be 0.195 µg/mL.

B11: 4A10 (antibody, V domains shown)
VH: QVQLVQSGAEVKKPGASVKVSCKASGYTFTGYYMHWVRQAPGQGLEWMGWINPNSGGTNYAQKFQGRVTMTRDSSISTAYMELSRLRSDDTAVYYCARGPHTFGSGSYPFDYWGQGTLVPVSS
VL: B1 VL with M4L
B11: the “Neutralizing titer 200TCID50” value was 3.12 µg/mL.

B12: 4G2 (antibody, V domains shown)
VH: QVQLVQSGAEVKKPGASVKVSCKASGFPFTDYYMHWVRQAPGQGLEWMGWINSNSGGTNYAQKFQGRVTMTRDTSISTAYMELSRLRSDDTAVYYCARGPHSFGSGSYPFDYWGQGTLVTVSS
VL: B1 VL
For the molecule B12, the “Neutralizing titer 200TCID50” value is 0.781 µg/mL.

B13: 4E2 (antibody, V domains shown)
VH: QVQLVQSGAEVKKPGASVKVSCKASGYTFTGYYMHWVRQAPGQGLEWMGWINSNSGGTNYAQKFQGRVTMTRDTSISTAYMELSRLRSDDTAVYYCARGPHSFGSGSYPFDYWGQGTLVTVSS
VL: B1 VL
B13: the “Neutralizing titer 200TCID50” value stood at 0.781 µg/mL.

B14: 6C1 (antibody, V domains shown)
VH: B12 VH
VL: B1 VL
Consider B14, for which the “Neutralizing titer 200TCID50” value stood at 0.781 µg/mL.

B15: 3F3 (antibody, V domains shown)
VH: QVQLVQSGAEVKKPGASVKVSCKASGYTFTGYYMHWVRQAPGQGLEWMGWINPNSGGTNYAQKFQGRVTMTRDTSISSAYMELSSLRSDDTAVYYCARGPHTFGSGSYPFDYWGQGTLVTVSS
VL: B1 VL with K42N
Turning to B15, the “Neutralizing titer 200TCID50” value came to 0.781 µg/mL.

B16: 6C2 (antibody, V domains shown)
VH: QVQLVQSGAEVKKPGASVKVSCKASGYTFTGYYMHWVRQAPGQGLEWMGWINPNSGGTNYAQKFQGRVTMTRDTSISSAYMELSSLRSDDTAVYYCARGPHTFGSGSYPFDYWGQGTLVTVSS
VL: B1 VL with K42N
For the molecule B16, the “Neutralizing titer 200TCID50” value stood at 0.781 µg/mL.

B17: 3C7 (antibody, V domains shown)
VH: QVQLVESGGGVVQPGTSLRLSCAASGFTFSSYGIHWVRQAPGKGLEWVAVIWYDGSNKFYADSVKGRFTISRDNSKNTLYLQMNSLRAEDTAVYYCARDPLGYCSSTSCSYFDYWGQGTLVTVSS
VL: DIQMTQSPSSVSASVGDRVTITCRASQGISNWLAWYQQKPGKAPKLLIYAASSLQSGVPSRFSGSGSGTDFTLTIRSLQPEDFATYYCQQANNFPLTFGGGTKVEIK
As to B17, the “Neutralizing titer 200TCID50” value stood at 12.5 µg/mL.

B18: 6B1 (antibody, V domains shown)
VH: B17 VH with Y60H
VL: B17 VL with R76S
With B18, the “Neutralizing titer 200TCID50” value is 3.12 µg/mL.
